Data on 1 protein can be found in FireProtDB (doi:10.1002/pro.5560061014).

For the data set the following is noted: Bacillus amyloliquefaciens, pH 7.4, Thermal, DSC, Sodium phosphate 50 mM, reversible: yes, whole UniProt chain shown.

B1: Barstar wild type, P11540 (protein)
chain: MKKAVINGEQIRSISDLHQTLKKELALPEYYGENLDALWDCLTGWVEYPLVLEWRQFEQSKQLTENGAESVLQVFREAKAEGCDITIILS
For the protein B1, the Tm was 72.8 °C, the “heat capacity change of unfolding” value is 1.27 kcal/mol/K and the “unfolding enthalpy (calorimetric)” value came to 72.5 kcal/mol. For the same protein, under “25 °C”, the “heat capacity change of unfolding” value was found to be 1.27 kcal/mol/K and the unfolding free energy worked out at 5.62 kcal/mol.

As a reminder, the Tm is the temperature at the midpoint of the melting transition.
